The results in this text go back to article PMC10397247.

Assay in all cases: two-hybrid library CCNG1;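 further: natural log of median RNA to DNA barcode read ratio; higher means stronger binding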
One assay has as its target T1, 4H730-bH.
T1 chain: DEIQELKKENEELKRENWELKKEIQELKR

For another assay, the target named is T2, 4H3381-bH.
T2 chain: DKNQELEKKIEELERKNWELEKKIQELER

A further assay deals with T3, 4H2585-bH.
T3 chain: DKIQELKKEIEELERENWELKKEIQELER

Another assay has as its target T4, 4H2760-bH.
T4 chain: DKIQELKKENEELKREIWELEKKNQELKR

In the next assay the target is T5, 4H932-bH.
T5 chain: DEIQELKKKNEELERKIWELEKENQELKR

For another assay, the target named is T6, 4H349-bH.
T6 chain: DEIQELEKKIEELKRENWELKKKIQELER

The target of another assay is T7, 4H4001-bH.
T7 chain: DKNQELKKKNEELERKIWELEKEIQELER

In the next assay the target is T8, 4H2859-bH.
T8 chain: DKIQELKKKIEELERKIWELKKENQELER

A further assay addresses T9, 4H3297-bH.
T9 chain: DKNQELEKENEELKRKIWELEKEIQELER

The target of the next assay is T10, 4H56-bH.
T10 chain: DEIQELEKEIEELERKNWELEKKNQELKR

Another assay concerns the target T11, 4H949-bH.
T11 chain: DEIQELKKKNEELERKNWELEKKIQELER

The target in a further assay is T12, 4H3041-bH.
T12 chain: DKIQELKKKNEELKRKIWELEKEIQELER

In a further assay the target is T13, 4H477-bN.
T13 chain: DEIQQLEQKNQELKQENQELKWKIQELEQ

The target of a further assay is T14, 4H796-bH.
T14 chain: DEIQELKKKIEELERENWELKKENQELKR

For the next assay, the target named is T15, 4H2931-bH.
T15 chain: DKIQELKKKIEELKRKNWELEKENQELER

The next assay deals with T16, 4H3364-bH.
T16 chain: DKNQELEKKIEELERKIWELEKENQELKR

The next assay addresses T17, 4H264-bH.
T17 chain: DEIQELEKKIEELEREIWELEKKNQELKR

A further assay has as its target T18, P8A-bN.
T18 chain: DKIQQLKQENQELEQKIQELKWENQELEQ

The next assay addresses T19, P7A-bN.
T19 chain: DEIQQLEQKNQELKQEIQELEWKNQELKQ

Another assay addresses T20, P9A-bN.
T20 chain: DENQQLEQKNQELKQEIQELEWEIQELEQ

A further assay deals with T21, P9mSN.
T21 chain: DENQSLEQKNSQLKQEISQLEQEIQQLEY

In a further assay the target is T22, 4H906-bH.
T22 chain: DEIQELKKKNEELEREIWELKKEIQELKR

A further assay has as its target T23, 4H619-bH.
T23 chain: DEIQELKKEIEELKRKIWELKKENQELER

Another assay concerns the target T24, 4H3638-bH.
T24 chain: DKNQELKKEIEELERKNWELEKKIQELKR

Another assay has as its target T25, 4H570-bH.
T25 chain: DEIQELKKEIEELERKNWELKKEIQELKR

In another assay the target is T26, 4H3631-bH.
T26 chain: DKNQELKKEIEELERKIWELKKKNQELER

A further assay has as its target T27, 4H3974-bH.
T27 chain: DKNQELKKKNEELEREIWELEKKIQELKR

A further assay has as its target T28, 4H850-bH.
T28 chain: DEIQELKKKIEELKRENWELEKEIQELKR

A further assay concerns the target T29, 4H584-bH.
T29 chain: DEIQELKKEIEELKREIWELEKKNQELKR

For the next assay, the target named is T30, 4H3172-bH.
T30 chain: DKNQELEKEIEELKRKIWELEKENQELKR

Another assay has as its target T31, 4H3414-bH.
T31 chain: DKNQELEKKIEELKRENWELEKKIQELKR

For a further assay, the target named is T32, 4H3817-bH.
T32 chain: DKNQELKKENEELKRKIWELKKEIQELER

The next assay addresses T33, 4H3129-bH.
T33 chain: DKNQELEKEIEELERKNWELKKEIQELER

The target in another assay is T34, 4H3277-bN.
T34 chain: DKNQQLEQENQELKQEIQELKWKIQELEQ

The target in a further assay is T35, 4H2915-bN.
T35 chain: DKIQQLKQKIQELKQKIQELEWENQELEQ

Another assay concerns the target T36, 4H40-bN.
T36 chain: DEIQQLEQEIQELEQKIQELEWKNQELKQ

A further assay addresses T37, 4H2588-bN.
T37 chain: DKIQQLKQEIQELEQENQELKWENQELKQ

For the next assay, the target named is T38, 4H2839-bN.
T38 chain: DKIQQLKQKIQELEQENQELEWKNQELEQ

Another assay addresses T39, 4H741-bN.
T39 chain: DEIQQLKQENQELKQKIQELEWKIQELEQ

For a further assay, the target named is T40, 4H319-bN.
T40 chain: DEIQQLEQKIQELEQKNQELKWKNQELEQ

Another assay has as its target T41, 4H3057-bN.
T41 chain: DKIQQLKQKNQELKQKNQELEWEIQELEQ

The next assay addresses T42, 4H348-bN.
T42 chain: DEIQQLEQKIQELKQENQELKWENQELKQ

The target in another assay is T43, 4H2692-bN.
T43 chain: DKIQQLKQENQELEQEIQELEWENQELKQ

A further assay addresses T44, 4H2717-bN.
T44 chain: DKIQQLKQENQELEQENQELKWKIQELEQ

A further assay concerns the target T45, 4H492-bN.
T45 chain: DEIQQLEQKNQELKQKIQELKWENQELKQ

The target of another assay is T46, 4H949-bA.
T46 chain: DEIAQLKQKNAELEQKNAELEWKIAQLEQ

A further assay concerns the target T47, 4H932-bA.
T47 chain: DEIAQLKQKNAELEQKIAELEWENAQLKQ

The next assay concerns the target T48, 4H796-bA.
T48 chain: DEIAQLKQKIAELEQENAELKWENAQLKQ

A further assay concerns the target T49, O3-bS.
T49 chain: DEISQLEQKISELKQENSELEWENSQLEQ

Another assay has as its target T50, O5-bS.
T50 chain: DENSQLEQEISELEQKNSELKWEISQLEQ

The target in a further assay is T51, O8-bS.
T51 chain: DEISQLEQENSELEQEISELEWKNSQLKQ

In another assay the target is T52, O6-bS.
T52 chain: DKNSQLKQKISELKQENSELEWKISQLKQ

The next assay deals with T53, O4-bS.
T53 chain: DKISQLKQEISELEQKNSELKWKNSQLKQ

The next assay deals with T54, O9-bS.
T54 chain: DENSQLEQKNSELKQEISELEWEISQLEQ

Another assay addresses T55, O2-bS.
T55 chain: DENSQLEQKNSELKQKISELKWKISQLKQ

The target of another assay is T56, O7-bS.
T56 chain: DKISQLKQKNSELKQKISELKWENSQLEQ

As to DKIQELKKEIEELERENWELKKEIQELER [4H2585-bH], the interaction score is -0.529 in the assay with 4H730-bH; -0.48 in the assay with 4H3381-bH; -0.17 with 4H2585-bH; 0.55 with 4H2760-bH; -1.27 with 4H932-bH; 1.63 with 4H349-bH. Also, the interaction score was -0.0821 with 4H4001-bH; 0.965 with 4H2859-bH; -0.417 in the assay with 4H3297-bH; 0.21 with 4H56-bH; -0.693 with 4H949-bH; 0.00364 with 4H3041-bH. Moreover, the interaction score in the assay with 4H477-bN is -0.435; in the assay with 4H796-bH it was -0.9; in the assay with 4H2931-bH, -0.336; with 4H3364-bH, -0.536; with 4H264-bH, -0.751.

On to DEIQQLEQKNQELKQEIQELEWKNQELKQ [P7A-bN], for which the interaction score was 2.12 in the assay with P8A-bN, 0.344 in the assay with P7A-bN and -1.19 with P9A-bN.

In the case of DKNQQLKQEIQELEQENQELEWKIQELKQ [P6A-bN], the interaction score was -0.195 with P8A-bN, 0.204 with P7A-bN, -0.239 with P9mSN and 0.0031 with P9A-bN.

Take DKNQELEKEIEELERKNWELKKEIQELER [4H3129-bH]: the interaction score in the assay with 4H906-bH is -0.384; in the assay with 4H619-bH, -0.44; with 4H3638-bH, -1.18; in the assay with 4H570-bH, -1.61; with 4H3631-bH it was -0.645; with 4H3974-bH, -0.348. Further, the interaction score in the assay with 4H850-bH is 0.17; with 4H584-bH, -0.445; in the assay with 4H3172-bH, -0.227; with 4H3414-bH it was 1.62; with 4H3817-bH it was -0.197; with 4H3129-bH it was -2.16.

In the case of DKIQQLKQEIQELEQENQELKWENQELKQ [4H2588-bN], the interaction score with 4H3277-bN is -0.49; with 4H2915-bN, 0.795; in the assay with 4H40-bN it was -0.648; with 4H2588-bN, 0.138; in the assay with 4H2839-bN, -1.16; in the assay with 4H741-bN, 0.0254. For the same molecule, the interaction score with 4H319-bN was -0.863; with 4H3057-bN, -1.34; in the assay with 4H348-bN, 1.49; in the assay with 4H477-bN, -1.95; with 4H2692-bN, 0.0187; in the assay with 4H2717-bN it was 0.223. Moreover, the interaction score in the assay with 4H492-bN was -0.343.

Regarding DEIAQLKQKIAELEQENAELKWENAQLKQ [4H796-bA], the interaction score with 4H949-bA was -0.898; in the assay with 4H932-bA it was -0.164; with 4H796-bA it was 0.961; with O3-bS it was -0.947.

In the case of DKNQELEKEIEELKRKIWELEKENQELKR [4H3172-bH], the interaction score with 4H906-bH is -0.821; with 4H619-bH it was -1.22; with 4H3638-bH, -0.13; with 4H570-bH it was 0.871; in the assay with 4H3631-bH, 0.994; in the assay with 4H3974-bH, 0.353. Besides, the interaction score in the assay with 4H850-bH is -0.531; with 4H584-bH, -1.68; with 4H3172-bH it was 0.448; in the assay with 4H3414-bH, 0.693; in the assay with 4H3817-bH it was -0.475.

For DENSQLEQKNSELKQKISELKWKISQLKQ [O2-bS], the interaction score is -2.56 with O5-bS; -2.49 with O8-bS; -1.1 in the assay with O6-bS; -1.49 with O4-bS; -1.59 with O9-bS; -0.754 in the assay with O2-bS. For the same molecule, the interaction score in the assay with O7-bS was -0.412.
